Reference: paper PMC7782513, “Structural basis for nuclear import selectivity of pioneer transcription factor SOX2” (Nature Communications, 2021)

T1: IMPα3 lacking the IMPβ-binding domain (residues 64-521) (human, UniProt O00629 64-521)
T1 sequence (looked up): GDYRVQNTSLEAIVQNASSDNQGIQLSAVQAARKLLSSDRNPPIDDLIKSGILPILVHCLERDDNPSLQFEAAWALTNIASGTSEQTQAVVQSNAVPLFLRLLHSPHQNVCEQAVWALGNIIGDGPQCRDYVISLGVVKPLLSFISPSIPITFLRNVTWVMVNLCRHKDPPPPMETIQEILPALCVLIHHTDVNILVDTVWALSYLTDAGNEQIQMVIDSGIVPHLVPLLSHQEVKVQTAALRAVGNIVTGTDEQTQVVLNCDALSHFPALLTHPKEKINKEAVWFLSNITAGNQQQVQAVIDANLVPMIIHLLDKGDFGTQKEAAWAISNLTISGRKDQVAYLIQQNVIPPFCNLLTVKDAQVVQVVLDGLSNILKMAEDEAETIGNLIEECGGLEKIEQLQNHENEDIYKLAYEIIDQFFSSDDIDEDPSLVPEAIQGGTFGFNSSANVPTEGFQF


Columns and labels:
Conditions in all cases: both partners purified
[1] = target: T1, IMPα3 lacking the IMPβ-binding domain …; assay: pull-down; 10 µM His-tagged SOX2 or mutant immobilised on Ni-NTA resin, 20 µM IMPα in 300 µL; washed three times with 50 mM phosphate pH 8.0, 300 mM NaCl, 20 mM imidazole; eluted through TEV cleavage; SDS-PAGE
[2] = target: IMPα5 lacking the IMPβ-binding domain (residues 73-538) (human, UniProt P52294 73-538); assay: MST; labelled SOX2 at 50 nM (his-tag labelling kit RED-tris-NTA), unlabelled importins titrated; 20 mM HEPES, 150 mM NaCl, pH 8.0; 25 °C; single binding model
[3] = target: IMPα1 lacking the IMPβ-binding domain (residues 70-529) (human, UniProt P52292 70-529); assay: as above
[4] = target: IMPα2 lacking the IMPβ-binding domain (residues 70-529) (UniProt P52293 70-529); assay: as above
[5] = target: T1, IMPα3 lacking the IMPβ-binding domain …; assay: as above

Sequence of IMPα5 lacking the IMPβ-binding domain (residues 73-538) (P52294 73-538): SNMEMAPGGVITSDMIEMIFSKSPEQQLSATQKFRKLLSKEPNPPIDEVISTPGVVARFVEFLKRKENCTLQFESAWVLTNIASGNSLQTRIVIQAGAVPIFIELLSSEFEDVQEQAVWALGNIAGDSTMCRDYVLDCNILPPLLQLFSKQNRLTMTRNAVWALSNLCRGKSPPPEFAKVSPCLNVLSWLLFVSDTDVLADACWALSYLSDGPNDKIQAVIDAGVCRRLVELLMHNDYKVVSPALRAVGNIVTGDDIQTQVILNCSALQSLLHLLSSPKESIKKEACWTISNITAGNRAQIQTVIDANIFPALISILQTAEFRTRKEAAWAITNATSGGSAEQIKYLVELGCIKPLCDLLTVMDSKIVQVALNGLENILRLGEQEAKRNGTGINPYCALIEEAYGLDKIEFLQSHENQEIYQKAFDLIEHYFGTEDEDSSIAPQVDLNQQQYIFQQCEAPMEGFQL

| Binder | binding result [1] | further results |
| --- | --- | --- |
| His-tagged SOX2 R113A (domain or fragment, SOX2 HMG domain, human, residues 39-127 of UniProtKB P48431, with R113A; source: E. coli, recombinant, purified; not shown: His6, N-terminal, kept) not shown | binds | – |
| His-tagged SOX2 HMG domain (residues 39-127), wild type (domain or fragment, SOX2 HMG domain, human, residues 39-127 of UniProtKB P48431; pET30a+ construct with a TEV site (ENLYFQS) between tag and SOX2; in MST the labelled SOX2 carries the RED-tris-NTA dye of the his-tag labelling kit; also called SOX2 WT; source: E. coli BL21 (DE3) pLysS, purified (HisTrap, SEC); not shown: His6, N-terminal, kept) not shown | – | Kd [2]: 247 nM; Kd [3]: 447 nM; Kd [4]: 283 nM; Kd [5]: 102 nM |
| His-tagged SOX2 K115A (domain or fragment, SOX2 HMG domain, human, residues 39-127 of UniProtKB P48431, with K115A; source: E. coli, recombinant, purified; not shown: His6, N-terminal, kept) not shown | binds | – |
| His-tagged SOX2 R114A (domain or fragment, SOX2 HMG domain, human, residues 39-127 of UniProtKB P48431, with R114A; source: E. coli, recombinant, purified; not shown: His6, N-terminal, kept) not shown | binds | – |
| His-tagged SOX2 K42A (domain or fragment, SOX2 HMG domain, human, residues 39-127 of UniProtKB P48431, with K42A; source: E. coli, recombinant, purified; not shown: His6, N-terminal, kept) not shown | binds | – |
| His-tagged SOX2 R43A (domain or fragment, SOX2 HMG domain, human, residues 39-127 of UniProtKB P48431, with R43A; also called R43A-SOX2; source: E. coli, recombinant, purified; not shown: His6, N-terminal, kept) not shown | binds | – |
| His-tagged SOX2 K117A (domain or fragment, SOX2 HMG domain, human, residues 39-127 of UniProtKB P48431, with K117A; source: E. coli, recombinant, purified; not shown: His6, N-terminal, kept) not shown | binds | – |
| His-tagged SOX2 R98A (domain or fragment, SOX2 HMG domain, human, residues 39-127 of UniProtKB P48431, with R98A; source: E. coli, recombinant, purified; not shown: His6, N-terminal, kept) not shown | binds | – |
| His-tagged SOX2 R56A (domain or fragment, SOX2 HMG domain, human, residues 39-127 of UniProtKB P48431, with R56A; source: E. coli, recombinant, purified; not shown: His6, N-terminal, kept) not shown | binds | – |
| His-tagged SOX2 T116E (to mimic phosphorylation) (domain or fragment, SOX2 HMG domain, human, residues 39-127 of UniProtKB P48431, with T116E; source: E. coli, recombinant, purified; not shown: His6, N-terminal, kept) not shown | binds | – |
| His-tagged SOX2 R57A (domain or fragment, SOX2 HMG domain, human, residues 39-127 of UniProtKB P48431, with R57A; source: E. coli, recombinant, purified; not shown: His6, N-terminal, kept) not shown | binds | – |
| His-tagged SOX2 R40A (domain or fragment, SOX2 HMG domain, human, residues 39-127 of UniProtKB P48431, with R40A; source: E. coli, recombinant, purified; not shown: His6, N-terminal, kept) not shown | binds | – |
